In patent US12351610B2, “Interferon regulatory factor 5 inhibitors and uses thereof” (THE FEINSTEIN INSTITUTES FOR MEDICAL RESEARCH, priority 2019, dated 2025):
“Also recorded” adds a separate entry of the source.

Columns and labels:
[1] = test system: IRF5 nuclear translocation in B cells of PBMC from healthy donors; test: R848-induced IRF5 nuclear translocation in PBMC B cells (CD19+), imaging flow cytometry; type: cell-based, human; conditions: 10 μM peptide pre-incubation 1 h, then 500 ng/mL R848 for 2 h
Experimental: Imaging Flow Cytometry. Imaging flow was performed as previously described on the Amnis Imagestream (19). Briefly, PBMCs from healthy donors were isolated and treated with inhibitor for 1 h, subsequently stimulated with R848 (500 ng/mL) or 2% SLE serum for 2 h, followed by staining for CD19 and CD14. PBMC were then fixed overnight in 1% paraformaldehyde and then permeabilized (19). Permeabilized cells were blocked in 5% BSA solution and stained for intracellular IRF5 (Abcam Catalog #: ab193245) or phospho(pSer462)IRF5 and FITC-conjugated secondary antibody (Abcam Catalog #: ab6896). Prior to acquisition, DRAQS dye was added at a 1:50 dilution. PBMC from SLE patients were only surface-stained and permeabilzed for intracellular IRF5 and DRAQS staining. Murine PBMC were stained similarly for intracellular IRF5 (Abcam Catolog #: 181553) (58) and APC-conjugated secondary antibody (BioLegend). Images were acquired on the ImageStream using the 40× objective. Nuclear translocation was quantified in the Amnis IDEAS software suite. Briefly, cells were first filtered through the brightfield area vs. brightfield aspect ratio gate to exclude non-viable and doublet events. Following which a similar gate of the DRAQS nuclear channel was used. […] Finally, IRF5 nuclear translocation was determined through use of the similarity score feature contrasting IRF5 staining with DRAQS staining. […]

[2] = molecular target: T1, human full-length recombinant IRF5 variant 5 (isoform V5) (Homo sapiens, UniProt Q13568); test: Surface plasmon resonance (SPR) binding of peptides to immobilized full-length recombinant IRF5; conditions: peptides 1 μM, IRF5 immobilized on chip, 25° C.
T1 construct: Full-length recombinant IRF5 protein (ab173024, Abcam) was immobilized onto a CMS series chip; purchased Abcam ab173024
T1 sequence (Q13568 1-514 isoform Q13568-2): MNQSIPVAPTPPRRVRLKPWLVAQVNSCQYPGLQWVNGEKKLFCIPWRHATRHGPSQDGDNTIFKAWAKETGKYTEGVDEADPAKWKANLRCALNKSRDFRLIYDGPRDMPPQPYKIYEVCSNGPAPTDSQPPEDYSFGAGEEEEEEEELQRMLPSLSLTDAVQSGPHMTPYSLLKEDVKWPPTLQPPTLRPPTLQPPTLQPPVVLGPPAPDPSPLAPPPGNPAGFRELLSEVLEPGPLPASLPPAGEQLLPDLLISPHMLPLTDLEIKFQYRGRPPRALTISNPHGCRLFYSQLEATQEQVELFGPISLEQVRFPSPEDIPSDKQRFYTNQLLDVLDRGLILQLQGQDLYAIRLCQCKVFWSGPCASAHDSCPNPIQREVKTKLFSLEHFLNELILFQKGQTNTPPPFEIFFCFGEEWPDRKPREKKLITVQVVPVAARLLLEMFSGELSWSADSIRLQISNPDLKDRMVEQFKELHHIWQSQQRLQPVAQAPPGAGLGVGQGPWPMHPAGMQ
Experimental: Surface Plasmon Resonance (SPR) Analysis. The Biacore T200 (GE Healthcare, UK) was used for real-time binding interaction studies. Full-length recombinant IRF5 protein (ab173024, Abcam) was immobilized onto a CMS series chip (GE Healthcare) by diluting to a concentration of 20 μg/mL in 10 mM acetate buffer (pH=5.0). A 1:1 mixture of N-hyrdoxysuccinimide and N-ethyl-N-(dimethyaminopropyl)carbodiimide was used to activate 2 flow-cells of the CMS chip. […] The sample flow-cell was injected with the diluted IRF5 at a flow rate of 10 μL/min by manual injection. The IRF5 injection was stopped when the SPR reached ˜490 RU. For binding of peptides to IRF5, the analytes (peptides) were diluted to 1 μM in 1×PBS+0.05% Tween20 buffer, filtered (0.22 μm) and injected over the IRF5 immobilized chip at a flow rate of 30 μL/min for 60 s at 25° C. with a dissociation time set for 1 min. Binding experiments were conducted in 1×PBS+0.05% Tween20 as the running buffer; at least 3 independent experiments were performed.
Peptides (1 μM) were tested for their ability to directly interact with human full-length recombinant IRF5 variant 5 (isoform V5) by surface plasmon resonance (SPR) analysis. DWEYS (SEQ ID NO:23) peptide served as a non-targeted control and CPP1 (SEQ ID NO:4) as a control for the cell permeable sequence. […] A shared similarity between N5-1 (SEQ ID NO:20) and N5-2 (SEQ ID NO:17) is their relatively stronger positive charge, as compared to the others (Table 1).
Human IRF5 contains two nuclear localization signals (NLS), one in the N-terminus and one in the C-terminus (27). N5-1 (SEQ ID NO:20) corresponds to the N-terminal NLS (PRRVRLK) (SEQ ID NO:24). To test whether any NLS is capable of binding to IRF5, we generated C5-2 (SEQ ID NO:22) that corresponds to the C-terminal NLS of IRF5 (PREKKLI) (SEQ ID NO:25) and examined binding by SPR.

[3] = test system: IRF5 nuclear translocation in monocytes (Mo) of PBMC from healthy donors; test: R848-induced IRF5 nuclear translocation in PBMC monocytes (CD14+), imaging flow cytometry; type: cell-based, human; conditions: 10 μM peptide pre-incubation 1 h, then 500 ng/mL R848 for 2 h
Experimental: Imaging Flow Cytometry. Imaging flow was performed as previously described on the Amnis Imagestream (19). Briefly, PBMCs from healthy donors were isolated and treated with inhibitor for 1 h, subsequently stimulated with R848 (500 ng/mL) or 2% SLE serum for 2 h, followed by staining for CD19 and CD14. PBMC were then fixed overnight in 1% paraformaldehyde and then permeabilized (19). Permeabilized cells were blocked in 5% BSA solution and stained for intracellular IRF5 (Abcam Catalog #: ab193245) or phospho(pSer462)IRF5 and FITC-conjugated secondary antibody (Abcam Catalog #: ab6896). Prior to acquisition, DRAQS dye was added at a 1:50 dilution. PBMC from SLE patients were only surface-stained and permeabilzed for intracellular IRF5 and DRAQS staining. Murine PBMC were stained similarly for intracellular IRF5 (Abcam Catolog #: 181553) (58) and APC-conjugated secondary antibody (BioLegend). Images were acquired on the ImageStream using the 40× objective. Nuclear translocation was quantified in the Amnis IDEAS software suite. Briefly, cells were first filtered through the brightfield area vs. brightfield aspect ratio gate to exclude non-viable and doublet events. Following which a similar gate of the DRAQS nuclear channel was used. This added an extra measure of stringency for cell viability. Images were gated on either CD14^+IRF5^+, CD19^+IRF5^+, or CD123^+BDCA2^+IRF5^+ events, followed by gating on images with a Gradient RMS of greater than 20 on the DRAQS channel. This was done to select images with a high level of clarity. Finally, IRF5 nuclear translocation was determined through use of the similarity score feature contrasting IRF5 staining with DRAQS staining. A similarity score≥2 was considered a translocation event.
Peptide mimetics inhibit TLR7-induced IRF5 nuclear translocation. We next sought to determine whether in vitro binding data would translate into IRF5 cellular inhibition. IRF5 is a key downstream mediator of TLR7-induced cytokine expression and TLR7 signaling has been implicated in SLE pathogenesis (2,44-47). We examined the ability of IRF5 peptide mimetics to inhibit IRF5 nuclear translocation following stimulation of PBMC with R848. […] For the initial screening, isolated PBMC from healthy donors were pre-incubated in the presence of mock (PBS), or 10 μM CPP1 (SEQ ID NO:4), N5-1 (SEQ ID NO:20), N5-2 (SEQ ID NO:17), N5-3 (SEQ ID NO:18) or C5-2 (SEQ ID NO:22) inhibitor for 1 h followed by stimulation with 500 ng/mL of R848 for 2 h. Cells were surface-stained with anti-CD14 (monocytes or Mo) and anti-CD19 (B cells) antibodies, then permeabilized and stained for intracellular IRF5 and DRAQ5. As expected, R848 induced significant IRF5 nuclear translocation in mock-incubated Mo (2) and B cells.

Substance	effect on R848-induced IRF5 nuclear translocation in B cells [1]	binding affinity for IRF5 [2]	effect on R848-induced IRF5 nuclear translocation in Mo [3]
DRQIKIWFQNRRMKWKK (listed as Drosophila antennapedia) [CPP1, reference compound]	no significant effect	minimal binding affinity	no significant effect
DRQIKIWFQNRRMKWKKEGVDEAD (cell penetrating and targeting sequence) [Peptide N5-5]		no affinity for IRF5	
DRQIKIWFQNRRMKWKKGPRDMPP (cell penetrating and targeting sequence) [Peptide N5-4]		N5-3 (SEQ ID NO:18)>N5-4 (SEQ ID NO:19)>CPP1 (SEQ ID NO:4)	
DWEYS (listed as Homo sapiens) [peptide that served as a non-targeted control, reference compound]		no affinity for IRF5	
DRQIKIWFQNRRMKWKKKSRDFRL (cell penetrating and targeting sequence) [Peptide N5-3]		binding to a slightly lesser extent; also recorded: directly bind to the full-length inactive IRF5 monomer	significant reduction
DRQIKIWFQNRRMKWKKPRRVRLK (cell penetrating and targeting sequence) [Peptide N5-1]		strongest binding affinity for IRF5; also recorded: directly bind to the full-length inactive IRF5 monomer	significant reduction
DRQIKIWFQNRRMKWKKRHATRHG (cell penetrating and targeting sequence) [Peptide N5-2]		strongest binding affinity for IRF5; also recorded: directly bind to the full-length inactive IRF5 monomer	significant reduction
